T1: Ufd1-Npl4 (UN) complex (yeast (S. cerevisiae), UniProt P53044 1-361; P33755 1-580)
T1 construct: Ufd1 of yeast; Npl4 of yeast; The methods call the complex untagged; the plasmids are described as Ufd1 with an N-terminal His14-SUMO tag and Npl4 with a C-terminal His6 or FLAG-His6 tag; also called untagged Ufd1/Npl4 (UN) complex; source: bacterial expression
T1 sequence 1: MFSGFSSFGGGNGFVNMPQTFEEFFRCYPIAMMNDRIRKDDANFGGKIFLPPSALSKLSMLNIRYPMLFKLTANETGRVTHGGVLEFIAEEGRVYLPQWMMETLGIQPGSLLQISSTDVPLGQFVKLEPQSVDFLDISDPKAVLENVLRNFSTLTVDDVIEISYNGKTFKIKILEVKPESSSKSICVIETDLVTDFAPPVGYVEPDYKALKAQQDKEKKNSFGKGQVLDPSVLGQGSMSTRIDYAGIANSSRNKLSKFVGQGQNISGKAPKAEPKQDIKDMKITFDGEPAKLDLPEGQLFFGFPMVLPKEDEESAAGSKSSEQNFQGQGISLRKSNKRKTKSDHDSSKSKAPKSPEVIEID
T1 sequence 2: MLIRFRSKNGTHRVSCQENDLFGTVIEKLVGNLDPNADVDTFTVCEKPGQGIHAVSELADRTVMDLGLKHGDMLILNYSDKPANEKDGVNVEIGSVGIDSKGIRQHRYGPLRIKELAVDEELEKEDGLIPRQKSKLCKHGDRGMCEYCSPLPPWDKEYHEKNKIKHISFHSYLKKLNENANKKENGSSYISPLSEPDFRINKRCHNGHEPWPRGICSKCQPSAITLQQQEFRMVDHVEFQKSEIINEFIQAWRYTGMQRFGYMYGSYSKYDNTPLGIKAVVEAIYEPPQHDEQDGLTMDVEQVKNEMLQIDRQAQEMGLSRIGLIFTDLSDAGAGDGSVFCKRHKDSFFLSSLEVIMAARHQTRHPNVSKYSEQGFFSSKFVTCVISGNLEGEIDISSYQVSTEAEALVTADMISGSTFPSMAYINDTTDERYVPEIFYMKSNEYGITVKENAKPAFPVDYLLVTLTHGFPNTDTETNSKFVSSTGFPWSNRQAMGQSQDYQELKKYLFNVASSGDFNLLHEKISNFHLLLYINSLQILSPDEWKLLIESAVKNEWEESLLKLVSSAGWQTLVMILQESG

B1: UBXN7-SBP (natural protein, human, UniProt O94888 1-489, looked up)
chain: MAAHGGSAASSALKGLIQQFTTITGASESVGKHMLEACNNNLEMAVTMFLDGGGIAEEPSTSSASVSTVRPHTEEEVRAPIPQKQEILVEPEPLFGAPKRRRPARSIFDGFRDFQTETIRQEQELRNGGAIDKKLTTLADLFRPPIDLMHKGSFETAKECGQMQNKWLMINIQNVQDFACQCLNRDVWSNEAVKNIIREHFIFWQVYHDSEEGQRYIQFYKLGDFPYVSILDPRTGQKLVEWHQLDVSSFLDQVTGFLGEHGQLDGLSSSPPKKCARSESLIDASEDSQLEAAIRASLQETHFDSTQTKQDSRSDEESESELFSGSEEFISVCGSDEEEEVENLAKSRKSPHKDLGHRKEENRRPLTEPPVRTDPGTATNHQGLPAVDSEILEMPPEKADGVVEGIDVNGPKAQLMLRYPDGKREQITLPEQAKLLALVKHVQSKGYPNERFELLTNFPRRKLSHLDYDITLQEAGLCPQETVFVQERN
notes: human UBXN7, wild type; also called SBP-tagged version of UBXN7; homolog of Ubx5; source: E. coli BL21 CodonPlus (DE3) RIPL, purified (Ni-NTA, SEC); not shown: SBP, C-terminal, kept
B2: Yod1-C160S (enzyme, human, UniProt Q5VVQ6 1-348, looked up)
chain: MFGPAKGRHFGVHPAPGFPGGVSQQAAGTKAGPAGAWPVGSRTDTMWRLRCKAKDGTHVLQGLSSRTRVRELQGQIAAITGIAPGGQRILVGYPPECLDLSNGDTILEDLPIQSGDMLIIEEDQTRPRSSPAFTKRGASSYVRETLPVLTRTVVPADNSSLFTSVYYVVEGGVLNPACAPEMRRLIAQIVASDPDFYSEAILGKTNQEYCDWIKRDDTWGGAIEISILSKFYQCEICVVDTQTVRIDRFGEDAGYTKRVLLIYDGIHYDPLQRNFPDPDTPPLTIFSSNDDIVLVQALELADEARRRRQFTDVNRFTLRCMVCQKGLTGQAEAREHAKETGHTNFGEV
notes: human deubiquitinating enzyme Yod1 with C160S; also called homolog of Otu1; source: E. coli BL21 CodonPlus (DE3) RIPL, purified (Ni-NTA, SEC)
B3: Otu1-C120S-FLAG (enzyme, S. cerevisiae, UniProt P43558 1-301, looked up)
chain: MKLKVTGAGINQVVTLKQDATLNDLIEHINVDVKTMRFGYPPQRINLQGEDASLGQTQLDELGINSGEKITIESSDSNESFSLPPPQPKPKRVLKSTEMSIGGSGENVLSVHPVLDDNSSLFHAIAYGIFKQDSVRDLREMVSKEVLNNPVKFNDAILDKPNKDYAQWILKMESWGGAIEIGIISDALAVAIYVVDIDAVKIEKFNEDKFDNYILILFNGIHYDSLTMNEFKTVFNKNQPESDDVLTAALQLASNLKQTGYSFNTHKAQIKCNTCQMTFVGEREVARHAESTGHVDFGQNR
notes: deubiquitinating enzyme Otu1 of yeast with C120S; pET28: N-terminal His6-tag, TEV-protease cleavage site, then a FLAG tag; source: E. coli BL21 CodonPlus (DE3) RIPL, purified (Ni-NTA, SEC); not shown: FLAG, N-terminal, kept

Legend:
Details in all cases: both partners purified
human p97 ATPase = molecular target: T2, human p97 ATPase (human, UniProt P55072 1-806); test: pull-down; UBXN7-SBP on streptavidin agarose with p97, human UN, Yod1-C160S and Ub(n)-TAIL, 1 μM each, SEC buffer, 5 mM ATPγS, 1 h, 4°C, eluted with 2 mM biotin; Coomassie-blue staining
T2 construct: human p97 (VCP), wild type; pET28 with N-terminal His6-tag and a TEV-protease cleavage site; also called VCP; homolog of Cdc48; source: E. coli BL21 CodonPlus (DE3) RIPL, purified (Ni-NTA, SEC)

human Npl4 = molecular target: T3, human Npl4 (human, UniProt Q8TAT6 1-608); test: as above
T3 construct: human Npl4; Used as the human UN complex with hUfd1; also called hNpl4; Npl4 of the human UN complex; source: purified

UBXN7-SBP = molecular target: B1; test: as above
Cdc48 = molecular target: T4, Cdc48 (yeast (S. cerevisiae), UniProt P25694 1-835); test: pull-down; Otu1-C120S-FLAG on anti-FLAG M2 agarose with Cdc48, UN and Ub(n)-TAIL, with or without Ubx5, 1 μM each, SEC buffer, 5 mM ATPγS, 1 h, 4°C; fluorescence scanning and Coomassie-blue staining
T4 construct: Cdc48 ATPase of yeast, wild type; pET28 with N-terminal His6-tag and a TEV-protease cleavage site; also called Cdc48 ATPase; wild-type (WT) Cdc48; source: E. coli BL21 CodonPlus (DE3) RIPL, purified (Ni-NTA, SEC)

Ufd1-Npl4 (UN) complex = molecular target: T1, Ufd1-Npl4 (UN) complex; test: as above

T3 sequence (Q8TAT6 whole entry): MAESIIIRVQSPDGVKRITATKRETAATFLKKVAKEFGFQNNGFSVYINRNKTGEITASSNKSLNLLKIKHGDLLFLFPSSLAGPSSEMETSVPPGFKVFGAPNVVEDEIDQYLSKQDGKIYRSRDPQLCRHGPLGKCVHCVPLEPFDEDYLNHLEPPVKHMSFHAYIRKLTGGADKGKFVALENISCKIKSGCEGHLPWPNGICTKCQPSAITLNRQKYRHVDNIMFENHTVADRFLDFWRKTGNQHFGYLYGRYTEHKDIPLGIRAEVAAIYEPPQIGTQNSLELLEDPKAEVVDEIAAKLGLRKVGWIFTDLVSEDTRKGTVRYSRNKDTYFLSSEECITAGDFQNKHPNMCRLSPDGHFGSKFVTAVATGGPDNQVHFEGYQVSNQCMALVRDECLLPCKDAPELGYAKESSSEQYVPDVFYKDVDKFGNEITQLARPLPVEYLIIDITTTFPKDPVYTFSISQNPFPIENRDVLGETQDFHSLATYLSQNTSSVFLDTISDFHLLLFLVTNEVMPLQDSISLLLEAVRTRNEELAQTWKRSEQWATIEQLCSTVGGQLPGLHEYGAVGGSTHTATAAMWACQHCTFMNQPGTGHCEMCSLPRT
T2 sequence (P55072 whole entry): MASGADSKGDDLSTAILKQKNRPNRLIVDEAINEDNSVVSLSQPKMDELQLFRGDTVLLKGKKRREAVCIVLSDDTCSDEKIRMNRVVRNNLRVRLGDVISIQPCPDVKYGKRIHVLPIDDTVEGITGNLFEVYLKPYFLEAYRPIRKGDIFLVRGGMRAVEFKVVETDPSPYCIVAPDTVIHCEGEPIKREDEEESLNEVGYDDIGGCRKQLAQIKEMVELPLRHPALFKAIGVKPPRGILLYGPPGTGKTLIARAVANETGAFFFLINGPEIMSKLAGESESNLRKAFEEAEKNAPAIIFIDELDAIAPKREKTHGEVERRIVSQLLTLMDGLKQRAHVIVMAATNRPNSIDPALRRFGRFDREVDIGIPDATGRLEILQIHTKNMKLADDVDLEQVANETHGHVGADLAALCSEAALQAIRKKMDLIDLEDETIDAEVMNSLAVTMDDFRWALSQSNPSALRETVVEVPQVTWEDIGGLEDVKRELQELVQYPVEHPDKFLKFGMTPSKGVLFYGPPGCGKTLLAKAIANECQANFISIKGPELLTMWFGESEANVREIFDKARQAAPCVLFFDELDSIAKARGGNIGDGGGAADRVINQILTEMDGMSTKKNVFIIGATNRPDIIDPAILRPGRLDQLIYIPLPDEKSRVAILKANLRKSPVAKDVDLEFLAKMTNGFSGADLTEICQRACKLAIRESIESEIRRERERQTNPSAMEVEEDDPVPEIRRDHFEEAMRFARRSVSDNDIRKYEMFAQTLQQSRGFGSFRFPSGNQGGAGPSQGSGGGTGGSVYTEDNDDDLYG
T4 sequence (P25694 whole entry): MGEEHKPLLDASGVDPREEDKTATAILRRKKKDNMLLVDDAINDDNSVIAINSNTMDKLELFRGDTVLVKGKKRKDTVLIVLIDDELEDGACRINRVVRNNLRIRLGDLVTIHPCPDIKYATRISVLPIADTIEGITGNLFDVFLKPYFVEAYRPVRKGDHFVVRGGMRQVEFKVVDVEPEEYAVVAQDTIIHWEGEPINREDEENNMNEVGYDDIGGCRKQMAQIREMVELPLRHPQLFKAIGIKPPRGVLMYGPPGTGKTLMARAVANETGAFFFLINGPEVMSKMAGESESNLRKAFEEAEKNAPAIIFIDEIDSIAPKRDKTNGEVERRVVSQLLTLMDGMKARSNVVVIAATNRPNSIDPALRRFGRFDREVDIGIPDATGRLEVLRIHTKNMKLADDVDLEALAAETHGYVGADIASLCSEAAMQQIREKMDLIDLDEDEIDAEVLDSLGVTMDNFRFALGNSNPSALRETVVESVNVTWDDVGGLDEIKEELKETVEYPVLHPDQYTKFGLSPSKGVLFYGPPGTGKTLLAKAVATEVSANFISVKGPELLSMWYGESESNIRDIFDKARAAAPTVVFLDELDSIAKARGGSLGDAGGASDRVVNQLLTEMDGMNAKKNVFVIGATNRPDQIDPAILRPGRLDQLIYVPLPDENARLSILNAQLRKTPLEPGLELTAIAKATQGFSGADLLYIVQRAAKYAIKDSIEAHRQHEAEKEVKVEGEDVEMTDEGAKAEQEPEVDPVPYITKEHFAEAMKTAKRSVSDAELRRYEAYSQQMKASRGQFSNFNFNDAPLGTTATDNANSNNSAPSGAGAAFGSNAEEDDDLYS

Binder: B1
binding result (human p97 ATPase): binds | binding result (human Npl4): binds

Binder: B2
binding result (UBXN7-SBP): binds

Binder: B3
binding result (Cdc48): binds | binding result (Ufd1-Npl4 (UN) complex): binds
